Results: article PMC314469, “Protein Interaction Networks by Proteome Peptide Scanning” (PLoS Biology, 2004)

T1: Yfr024 SH3 (LSB3_YEAST), P43603
T1 chain: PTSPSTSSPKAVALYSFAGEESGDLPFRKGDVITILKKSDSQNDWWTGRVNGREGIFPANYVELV

T2: Rvs167 SH3 (RV167_YEAST), P39743
T2 chain: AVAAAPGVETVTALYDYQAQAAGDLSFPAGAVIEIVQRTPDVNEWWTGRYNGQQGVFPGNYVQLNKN

T3: Boi1 SH3 (BOI1_YEAST), P38041
T3 chain: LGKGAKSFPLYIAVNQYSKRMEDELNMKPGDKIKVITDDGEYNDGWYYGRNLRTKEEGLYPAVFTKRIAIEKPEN

T4: Boi2 SH3 (BOI2_YEAST), P39969
T4 chain: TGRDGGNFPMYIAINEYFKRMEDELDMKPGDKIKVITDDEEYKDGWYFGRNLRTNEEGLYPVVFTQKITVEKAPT

T5: Yhr016c SH3 (YSC84_YEAST), P32793
T5 chain: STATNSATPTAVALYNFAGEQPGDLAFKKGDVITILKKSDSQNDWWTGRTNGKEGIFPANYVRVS


Biological target: T1, Yfr024 SH3 (LSB3_YEAST), P43603
Test: SPOT array

Binder	normalised SPOT signal, Boehringer light units (BLU); mean over the file's lines of this peptide
SFAPFFPTKRRGSW [YOR254C 500-513]	15400
SGPPPRPKKPSTLK [YNL138W 352-365]	2620
SLAPVYPLKSLLRI [YDR332W 665-678]	782
SKIPMLPSRRTMAG [YHL027W 505-518]	45200
SHSPISPLKIETAP [YOR057W 166-179]	38.9
SHAPTKPTKTYKKW [YOR059C 252-265]	3670
SKDPNRPTKFAFES [YML061C 386-399]	162
SLPPTPPYKAHKKK [YBR007C 353-366]	758
SKFPELPSKVHNAV [YGR264C 141-154]	1170
SLDPDRPEKDSVEE [YIR032C 171-184]	126
SGKPLFPGRDYHHQ [YGR040W 221-234]	2060
SGKPKKPYRRWTPE [YDR464W 666-679]	4000
SKVPKAPTRETHIP [YML013W 181-194]	1300
SHQPYLPIKNKNIV [YDL203C 329-342]	1340
SGPPLLPPRNTMKN [YJR083C 215-228]	32900
SHLPLIPEKIKSLK [YDR419W 203-216]	774
SFVPFPPFKLLTFD [YPR071W 44-57]	322
SKPPQLPPKSSSLR [YJL056C 343-356]	45000
SKGPRTPAKEILEF [YDR206W 310-323]	380

Biological target: T2, Rvs167 SH3 (RV167_YEAST), P39743
Test: SPOT array

Binder	normalised SPOT signal, Boehringer light units (BLU); mean over the file's lines of this peptide
SFAPFFPTKRRGSW [YOR254C 500-513]	232
SGPPPRPKKPSTLK [YNL138W 352-365]	29
SLAPVYPLKSLLRI [YDR332W 665-678]	45.5
SKIPMLPSRRTMAG [YHL027W 505-518]	58400
SHSPISPLKIETAP [YOR057W 166-179]	20.2
SHAPTKPTKTYKKW [YOR059C 252-265]	10
SKDPNRPTKFAFES [YML061C 386-399]	37.7
SLPPTPPYKAHKKK [YBR007C 353-366]	29.4
SKFPELPSKVHNAV [YGR264C 141-154]	20.5
SLDPDRPEKDSVEE [YIR032C 171-184]	20.5
SGKPLFPGRDYHHQ [YGR040W 221-234]	105
SGKPKKPYRRWTPE [YDR464W 666-679]	196
SKVPKAPTRETHIP [YML013W 181-194]	47.3
SHQPYLPIKNKNIV [YDL203C 329-342]	50.4
SGPPLLPPRNTMKN [YJR083C 215-228]	25500
SHLPLIPEKIKSLK [YDR419W 203-216]	50.3
SFVPFPPFKLLTFD [YPR071W 44-57]	68.3
SKPPQLPPKSSSLR [YJL056C 343-356]	140
SKGPRTPAKEILEF [YDR206W 310-323]	53.9

Biological target: T3, Boi1 SH3 (BOI1_YEAST), P38041
Test: SPOT array

Binder	normalised SPOT signal, Boehringer light units (BLU); mean over the file's lines of this peptide
SFAPFFPTKRRGSW [YOR254C 500-513]	342
SGPPPRPKKPSTLK [YNL138W 352-365]	138
SLAPVYPLKSLLRI [YDR332W 665-678]	7610
SKIPMLPSRRTMAG [YHL027W 505-518]	2650
SHSPISPLKIETAP [YOR057W 166-179]	196
SHAPTKPTKTYKKW [YOR059C 252-265]	111
SKDPNRPTKFAFES [YML061C 386-399]	47.1
SLPPTPPYKAHKKK [YBR007C 353-366]	114
SKFPELPSKVHNAV [YGR264C 141-154]	105
SLDPDRPEKDSVEE [YIR032C 171-184]	83.1
SGKPLFPGRDYHHQ [YGR040W 221-234]	33.8
SGKPKKPYRRWTPE [YDR464W 666-679]	109
SKVPKAPTRETHIP [YML013W 181-194]	23.4
SHQPYLPIKNKNIV [YDL203C 329-342]	80.9
SGPPLLPPRNTMKN [YJR083C 215-228]	577
SHLPLIPEKIKSLK [YDR419W 203-216]	123
SFVPFPPFKLLTFD [YPR071W 44-57]	75.4
SKPPQLPPKSSSLR [YJL056C 343-356]	74.2
SKGPRTPAKEILEF [YDR206W 310-323]	176

Biological target: T4, Boi2 SH3 (BOI2_YEAST), P39969
Test: SPOT array

Binder	normalised SPOT signal, Boehringer light units (BLU); mean over the file's lines of this peptide
SFAPFFPTKRRGSW [YOR254C 500-513]	350
SGPPPRPKKPSTLK [YNL138W 352-365]	84.8
SLAPVYPLKSLLRI [YDR332W 665-678]	54.3
SKIPMLPSRRTMAG [YHL027W 505-518]	4640
SHSPISPLKIETAP [YOR057W 166-179]	47
SHAPTKPTKTYKKW [YOR059C 252-265]	21.9
SKDPNRPTKFAFES [YML061C 386-399]	37.9
SLPPTPPYKAHKKK [YBR007C 353-366]	22.9
SKFPELPSKVHNAV [YGR264C 141-154]	32.6
SLDPDRPEKDSVEE [YIR032C 171-184]	46.2
SGKPLFPGRDYHHQ [YGR040W 221-234]	54.4
SGKPKKPYRRWTPE [YDR464W 666-679]	28
SKVPKAPTRETHIP [YML013W 181-194]	36.6
SHQPYLPIKNKNIV [YDL203C 329-342]	85
SGPPLLPPRNTMKN [YJR083C 215-228]	65.5
SHLPLIPEKIKSLK [YDR419W 203-216]	56.3
SFVPFPPFKLLTFD [YPR071W 44-57]	28.7
SKPPQLPPKSSSLR [YJL056C 343-356]	6.6
SKGPRTPAKEILEF [YDR206W 310-323]	44.4

Biological target: T5, Yhr016c SH3 (YSC84_YEAST), P32793
Test: SPOT array

Binder	normalised SPOT signal, Boehringer light units (BLU); mean over the file's lines of this peptide
SFAPFFPTKRRGSW [YOR254C 500-513]	998
SGPPPRPKKPSTLK [YNL138W 352-365]	305
SLAPVYPLKSLLRI [YDR332W 665-678]	173
SKIPMLPSRRTMAG [YHL027W 505-518]	103000
SHSPISPLKIETAP [YOR057W 166-179]	45.7
SHAPTKPTKTYKKW [YOR059C 252-265]	104
SKDPNRPTKFAFES [YML061C 386-399]	236
SLPPTPPYKAHKKK [YBR007C 353-366]	108
SKFPELPSKVHNAV [YGR264C 141-154]	132
SLDPDRPEKDSVEE [YIR032C 171-184]	93.6
SGKPLFPGRDYHHQ [YGR040W 221-234]	896
SGKPKKPYRRWTPE [YDR464W 666-679]	407
SKVPKAPTRETHIP [YML013W 181-194]	218
SHQPYLPIKNKNIV [YDL203C 329-342]	99.3
SGPPLLPPRNTMKN [YJR083C 215-228]	30000
SHLPLIPEKIKSLK [YDR419W 203-216]	136
SFVPFPPFKLLTFD [YPR071W 44-57]	290
SKPPQLPPKSSSLR [YJL056C 343-356]	2910
SKGPRTPAKEILEF [YDR206W 310-323]	0
